Experimental data published in US10526416B2, “Anti-HER3 antibodies and uses of same” (Yeda Research and Development Co. Ltd., priority 2014, dated 2020).

Target: T1, IgB3 (Homo sapiens, UniProt P21860)
T1 construct: To produce IgB3 (recombinant HER3 extracellular domain fused to a human IgG Fc domain); made in house
Assay: Antibody competition assay with Lumi4(Tb)-labeled NG33 on IgB3-coated plates
Type: binding
Conditions: NG33-K2 1 nM
Procedure: FIGS. 12A-D show a combination of two mAbs directed to two different epitopes of HER3. (FIGS. 12A and 12B) The antibodies NG33 and XC252 were labeled with the fluorescent dye Lumi4® Tb Cryptate (K2). 96 well-plate were coated with IgB3 (1.5 μg/ml), blocked with PBS-BSA and incubated for 1 h with various concentrations of mAbs under gentle shaking at RT. The labeled mAb, NG33-K2 (FIG. 12A) or XC252-K2 (FIG. 12B), was then added at 1 nM final concentration. After ah incubation, the plate was washed 4 times with KREBS buffer, and the fluorescence intensity at 610 nm was measured using a fluorescence microplate reader. (FIG. 12C) The various anti-HER3 mAb combinations were studied for their ability to trigger HER3 degradation using N87 cells. Cells were treated for 2 h at 37° C. with mAb (10 μg/ml). After cell lysis and protein extraction, the samples were subjected to immunoblotting with the indicated antibodies. (FIG. 12D) The combination's capacity to modulate NRG-induced phosphorylation of HER3, AKT and ERK was evaluated using N87 cells. After 20 min treatment at 37° C. with 10 μg/ml of mAbs, NRG (20 ng/ml) was added to the cells for 10 min. The cells were then lysed, and equal quantities of lysate protein were electrophoresed before immunoblotting, as indicated.
Agent labeling was performed by Cisbio. […] Following 1 h incubation, the plate was washed 4 times with KREBS buffer (146 mM NaCl, 4 mM KCl, 0.5 mM MgCl2, 1 mM CaCl2, 10 mM Hepes, 1 gr/L glucose, and 1 mg/mL albumin), and the fluorescent intensity (excitation: 488 nm, emission: 610 nm) was measured using a fluorescence microplate reader. […] Finally, following two washes with KREBS buffer, the fluorescence intensity was measured at 670 nm (excitation: 620 nm).
Combinations of antibodies directed against two different epitopes of the same receptor, as has been previously shown, can improve the effect of treatment with a single mAb (28, 29). […] First, it was determined which antibody from the anti-HER3 series targets an epitope distinct from that targeted by NG33. […]

T1 sequence (P21860 20-643 limits assumed): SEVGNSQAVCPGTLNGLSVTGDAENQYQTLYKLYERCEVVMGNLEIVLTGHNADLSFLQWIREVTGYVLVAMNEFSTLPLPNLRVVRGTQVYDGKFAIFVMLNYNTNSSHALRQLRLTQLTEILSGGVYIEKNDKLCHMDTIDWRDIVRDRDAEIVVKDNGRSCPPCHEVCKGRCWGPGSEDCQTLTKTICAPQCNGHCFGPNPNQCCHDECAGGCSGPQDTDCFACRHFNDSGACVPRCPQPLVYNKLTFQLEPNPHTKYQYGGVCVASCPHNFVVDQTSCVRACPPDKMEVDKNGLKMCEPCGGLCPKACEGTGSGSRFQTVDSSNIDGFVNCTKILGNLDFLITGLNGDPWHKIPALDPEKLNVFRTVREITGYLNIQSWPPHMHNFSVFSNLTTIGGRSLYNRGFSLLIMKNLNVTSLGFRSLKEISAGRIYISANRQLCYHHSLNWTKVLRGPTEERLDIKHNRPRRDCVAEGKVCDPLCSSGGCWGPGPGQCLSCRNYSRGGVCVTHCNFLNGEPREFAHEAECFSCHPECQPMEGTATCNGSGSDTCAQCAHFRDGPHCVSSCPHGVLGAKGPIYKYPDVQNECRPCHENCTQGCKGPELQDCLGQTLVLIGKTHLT
T1 sequence (P01857 99-330 partner limits assumed): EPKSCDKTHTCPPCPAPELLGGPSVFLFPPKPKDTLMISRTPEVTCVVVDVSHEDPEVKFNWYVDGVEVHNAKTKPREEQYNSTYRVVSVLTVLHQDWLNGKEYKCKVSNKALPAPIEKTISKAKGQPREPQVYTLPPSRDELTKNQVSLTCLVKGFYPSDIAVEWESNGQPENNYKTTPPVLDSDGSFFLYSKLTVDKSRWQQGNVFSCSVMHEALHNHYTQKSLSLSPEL

B1: NG83: anti-HER3 mAb; light chain CDRs SEQ ID NOs: 7-9, heavy chain CDRs 10-12 (antibody, V domains shown)
VH: QIQLVQSGPELKKRGETVKISCKASGYTFTNYGMNWVRQAPGKGLKCMGWINTYAGEPTYADDFKGRFAFSLDSSASTAYLQINNLKNEDMATYFCARGGITGAMDYWGQGTSVTVSS
VL: DVVMTQKTSSLSTSLGDRVTISCRASQDIRNYLNWYQQKPDGTVKLLIYYTSRLHSGVPSRFSGSGSGTDYSLTISDLEQEDIATYFCQQGNTLPWTFGGGTKLAIK
modifications: VH chain of NG83 polypeptide; VL chain of NG83 polypeptide
**Q.** How did the “effect on binding of Lumi4(Tb)-labeled NG33 to IgB3” value turn out when B1 was run?
**A.** Its value is “potentiated NG33 binding to IgB3”.

B2: XC252: anti-HER3 mAb generated as described in Chen X, et al. (1996); heavy and light chain SEQ ID NOs: 49 and 53 (antibody, V domains shown)
VH: EVQLQQSGAELVRPGVSVKISCKGSGYTFTDYAMHWVKQSHAKSLEWIGVISTYYGDPRDNQKFKGKATMTVDKSSSTAYMELARLTSEDSAIYYCARGDYDWYAIDYWGQGTSVTVSS
VL: DVVMTQTPLSLPVSLGDQASISCRSSQSIVHSDGNTYLEWYLQKPGQSPKLLIYKVSNRFSGVPDRFSGSGSGTDFTLKISRVEAEDLGVYYCFQGSHVPPTFGGGTKLEIK
modifications: VH chain of XC252 polypeptide; VL chain of XC252 polypeptide
**Q.** How did the “effect on binding of Lumi4(Tb)-labeled NG33 to IgB3” value turn out when B2 was run?
**A.** The value was “did not alter NG33 binding”.
